How the values were obtained:
[1] = test system: ACDK proteins (immunoprecipitated from brain tissue extracts with the anti-ACDK-specific antibody)
[2] = test system: cyclin A (immunoprecipitated)

Substance | observed phosphorylation efficiency of pRB, against the cyclin A-CDK2 complex [1] | pRB phosphorylation (kinase reaction, Western blot with pRB phosphospecific antibodies) [1] | pRB phosphorylation (kinase reaction, Western blot with pRB phosphospecific antibodies) [2]
CDK2 (immunoprecipitated, native) | ACDK-CDK2 activity was approximately 2-fold higher than that of cyclin A-CDK2 complex | pRB was phosphorylated by ACDK-CDK2 complex at threonine 821 | Lane B, pRB phosphorylated by cyclin A-CDK2 (positive control)
CDK1 (immunoprecipitated, native) | – | by ACDK-CDK1 complex at serine 249 and/or threonine 252 | Lane B, pRB phosphorylated by cyclin A-CDK1 (positive control)

— patent publication US20060099701
